± gives the standard deviation of the averaged measurements.
B1: library; numbered along this chain (parent)
chain: MNIQIGELAKRTACPVVTIRFYEQEGLLPPPGRSRGNFRLYGEEHVERLQFIRHCRSLDMPLSDVRTLLSYRKRPDQDCGEVNMLLDEHIRQVESRIGALLELKHHLVELREACSGARPAQSCGILQGLSDCVCDTRGTTAHPSD

Key:
[1] = variants of: B1; assay: sfGFP reporter fluorescence (15 h) (µM FITC); higher = higher leak; details: library round: Round 0; ligand: none
Procedure, shortened: (§1)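 Values are endpoint sfGFP fluorescence given as µM FITC equivalents. Fluorescence was read at 485/528 nm on a Synergy Neo2, and FITC standard curves were prepared in 50 mM sodium borate pH 8.5. Reactions of 1 μL combined BL21 Star (DE3) PANOx-SP extract, pPbrR-sfGFP reporter, 30 μg/mL GamS and linear PbrR templates (PCR-made, Echo-normalized to 5 nM), with 1 µM lead chloride, 30 µM zinc acetate or no metal, for 15 hr at 30 °C.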

[2] = variants of: B1; assay: sfGFP reporter fluorescence (15 h) (µM FITC); higher = stronger transcriptional activation; details: library round: Round 0
Procedure, shortened: as §1

Row | Variant | sfGFP reporter fluorescence [1] | sfGFP reporter fluorescence ([2]; ligand: 1 µM Pb) | sfGFP reporter fluorescence ([2]; ligand: 30 µM Zn)
1 | L68R | 0.06175 ± 0.00026 | 0.0579 ± 0.001 | 0.0596 ± 0.0029
2 | L85Y | 0.0592 ± 0.0039 | 0.0603 ± 0.00078 | 0.253 ± 0.0096
3 | L85E | 0.0605 ± 0.0015 | 0.0586 ± 0.0021 | 0.05662 ± 0.00026
4 | L85Q | 0.0586 ± 0.001 | 0.0581 ± 0.00078 | 0.0658 ± 0.0023
5 | L85K | 0.0585 ± 0.0029 | 0.0566 ± 0.00078 | 0.0645 ± 0.001
6 | L85N | 0.0564 ± 0.0021 | 0.0575 ± 0.0015 | 0.0612 ± 0.0015
7 | L85T | 0.0601 ± 0.0015 | 0.057 ± 0.0013 | 0.1118 ± 0.00052
8 | V93A | 0.0585 ± 0.0013 | 0.0579 ± 0.0031 | 0.128 ± 0.0062
9 | D135L | 0.059 | 0.0898 ± 0.0026 | 1.55 ± 0.24
10 | D135W | 0.0737 ± 0.0036 | 0.146 ± 0.012 | 1.83 ± 0.17
11 | D135E | 0.0579 ± 0.0021 | 0.0724 ± 0.0029 | 0.648 ± 0.055
12 | D135H | 0.0665 ± 0.0018 | 0.107 ± 0.0042 | 2.14 ± 0.068
13 | C123R | 0.0599 ± 0.0023 | 0.061 ± 0.00078 | 0.0574 ± 0.0044
14 | I90K | 0.0621 ± 0.0023 | 0.099 ± 0.0047 | 0.85 ± 0.061
15 | I90N | 0.05717 ± 0.00052 | 0.0601 ± 0.0036 | 0.279 ± 0.012
16 | I90L | 0.0559 ± 0.0029 | 0.0583 ± 0.0015 | 0.3539 ± 0.0034
17 | I90P | 0.0574 ± 0.0029 | 0.0616 ± 0.0015 | 0.151 ± 0.0047
18 | G128N | 0.0614 ± 0.0023 | 0.0704 ± 0.0042 | 0.875 ± 0.093
19 | G128Y | 0.0755 | 0.203 ± 0.018 | 1.37 ± 0.067
20 | G128T | 0.0647 ± 0.0018 | 0.0885 ± 0.014 | 1.21 ± 0.22
21 | G128P | 0.05498 ± 0.00052 | 0.0568 ± 0.001 | 0.0535 ± 0.001
22 | L62H | 0.06285 ± 0.00026 | 0.0638 ± 0.001 | 0.0918 ± 0.0049
23 | L62A | 0.06469 ± 0.00026 | 0.0634 ± 0.0031 | 0.0839 ± 0.0062

Row | Variant | sfGFP reporter fluorescence [1] | sfGFP reporter fluorescence ([2]; ligand: 1 µM Pb) | sfGFP reporter fluorescence ([2]; ligand: 30 µM Zn)
24 | L62K | 0.0632 ± 0.0013 | 0.0619 ± 0.001 | 0.0815 ± 0.0018
25 | L62Q | 0.0597 ± 0.001 | 0.0608 ± 0.001 | 0.0819 ± 0.0018
26 | F51A | 0.06597 ± 0.00052 | 0.0621 ± 0.0023 | 0.16 ± 0.0083
27 | L28Q | 0.0638 | 0.0619 ± 0.001 | 0.05901 ± 0.00052
28 | L28N | 0.06285 ± 0.00026 | 0.0592 ± 0.00078 | 0.0605 ± 0.0026
29 | R20D | 0.0614 ± 0.0023 | 0.0616 ± 0.0015 | 0.0687 ± 0.0013
30 | P61S | 0.0755 ± 0.00052 | 0.146 ± 0.0036 | 2.15 ± 0.052
31 | P61T | 0.0865 ± 0.001 | 0.211 ± 0.006 | 1.94 ± 0.03
32 | P61Q | 0.0755 ± 0.0015 | 0.148 ± 0.0065 | 1.07 ± 0.024
33 | P61F | 0.0608 ± 0.0031 | 0.0651 ± 0.0023 | 0.09382 ± 0.00052
34 | P61C | 0.0755 ± 0.001 | 0.193 ± 0.0083 | 1.78 ± 0.031
35 | E109V | 0.0605 ± 0.0042 | 0.107 ± 0.0096 | 1.69 ± 0.1
36 | E109F | 0.0621 ± 0.0013 | 0.09126 ± 0.00052 | 1.32 ± 0.051
37 | E109K | 0.0649 ± 0.001 | 0.09492 ± 0.00052 | 2.2 ± 0.14
38 | E109G | 0.05644 ± 0.00052 | 0.0695 ± 0.0013 | 0.793 ± 0.063
39 | E109M | 0.061 ± 0.0013 | 0.0806 ± 0.0057 | 0.957 ± 0.061
40 | M60L P61N L107C G128M | 3.38 ± 0.74 | 4.14 ± 0.57 | 5.5 ± 0.2
41 | I97M | 0.0574 ± 0.0023 | 0.057 ± 0.0023 | 0.2807 ± 0.00052
42 | I97S | 0.0592 ± 0.0039 | 0.0722 ± 0.0015 | 0.554 ± 0.0062
43 | H89G | 0.0559 ± 0.0044 | 0.05443 ± 0.00026 | 0.0577 ± 0.0023
44 | H89V | 0.0592 ± 0.0034 | 0.0575 ± 0.0021 | 0.05681 ± 0.00052
45 | H89S | 0.0572 ± 0.001 | 0.0579 ± 0.0031 | 0.0627 ± 0.001
46 | H89M | 0.061 ± 0.0013 | 0.06359 ± 0.00026 | 0.1426 ± 0.00052

Row | Variant | sfGFP reporter fluorescence [1] | sfGFP reporter fluorescence ([2]; ligand: 1 µM Pb) | sfGFP reporter fluorescence ([2]; ligand: 30 µM Zn)
47 | H89K | 0.0601 ± 0.0026 | 0.0599 ± 0.0013 | 0.161 ± 0.0036
48 | H89P | 0.0566 ± 0.0029 | 0.05498 ± 0.00052 | 0.0564
49 | H89I | 0.0539 ± 0.0047 | 0.0537 ± 0.0018 | 0.0594 ± 0.0021
50 | P143C | 0.0574 ± 0.0013 | 0.07678 ± 0.00026 | 0.495 ± 0.12
51 | P143W | 0.0588 ± 0.0029 | 0.0861 ± 0.0026 | 0.751 ± 0.11
52 | P143A | 0.0696 ± 0.0015 | 0.0806 ± 0.0026 | 0.4 ± 0.12
53 | G36E | 0.05992 ± 0.00026 | 0.0618 ± 0.0018 | 0.115 ± 0.0098
54 | G36P | 0.05937 ± 0.00052 | 0.0583 ± 0.001 | 0.0627 ± 0.0036
55 | Y41V | 0.059 ± 0.001 | 0.05974 ± 0.00052 | 0.0687 ± 0.0013
56 | Y41K | 0.06047 ± 0.00052 | 0.061 ± 0.0029 | 0.0621 ± 0.0018
57 | Q50A | 0.06615 ± 0.00026 | 0.0891 | 0.743 ± 0.019
58 | F21N | 0.0605 ± 0.0015 | 0.0605 ± 0.0021 | 0.06267 ± 0.00052
59 | F21M | 0.0599 ± 0.0013 | 0.0619 ± 0.0021 | 0.09 ± 0.0086
60 | F21C | 0.0599 ± 0.0029 | 0.0597 | 0.0583 ± 0.001
61 | F21G | 0.059 | 0.0577 ± 0.0023 | 0.0588 ± 0.00078
62 | F21P | 0.0619 | 0.0603 ± 0.0018 | 0.0629 ± 0.0018
63 | V16E | 0.06341 ± 0.00052 | 0.0762 ± 0.001 | 0.986 ± 0.046
64 | V16P | 0.06102 ± 0.00026 | 0.08796 ± 0.00052 | 1.53 ± 0.031
65 | V16R | 0.0671 ± 0.001 | 0.132 ± 0.0057 | 2.03 ± 0.3
66 | V16L | 0.06249 ± 0.00026 | 0.0825 ± 0.0021 | 0.56 ± 0.022
67 | V16I | 0.05864 ± 0.00052 | 0.0768 ± 0.0018 | 0.981 ± 0.061
68 | V16D | 0.0649 ± 0.0015 | 0.0975 ± 0.0026 | 0.9703 ± 0.0039
69 | M60L D64K L107C G128I | 5.03 ± 0.22 | 4.57 ± 0.23 | 3.85 ± 0.9

Row | Variant | sfGFP reporter fluorescence [1] | sfGFP reporter fluorescence ([2]; ligand: 1 µM Pb) | sfGFP reporter fluorescence ([2]; ligand: 30 µM Zn)
70 | I3E | 0.061 ± 0.0013 | 0.0601 ± 0.001 | 0.101 ± 0.0013
71 | I3H | 0.059 ± 0.001 | 0.0707 ± 0.0021 | 0.356 ± 0.01
72 | I3M | 0.0641 ± 0.0015 | 0.0768 ± 0.0018 | 1.27 ± 0.15
73 | I3L | 0.0568 ± 0.0057 | 0.0722 ± 0.0042 | 0.821 ± 0.0098
74 | D64K K104V G128M | 1.36 ± 0.059 | 2.78 ± 0.079 | 4.45 ± 0.11
75 | L107D | 0.0586 ± 0.0021 | 0.0596 ± 0.0018 | 0.0579 ± 0.0026
76 | L107E | 0.05882 ± 0.00026 | 0.0746 ± 0.0096 | 0.288 ± 0.054
77 | L107M | 0.0546 ± 0.0015 | 0.0605 ± 0.0026 | 0.371 ± 0.046
78 | C79H | 0.05919 ± 0.00026 | 0.0596 ± 0.00078 | 0.0559 ± 0.00078
79 | C79W | 0.0583 ± 0.0021 | 0.0588 ± 0.0013 | 0.0548 ± 0.0034
80 | C79V | 0.0572 ± 0.0015 | 0.0586 | 0.05552 ± 0.00026
81 | R33T | 0.0634 | 0.06267 ± 0.00052 | 0.06285 ± 0.00026
82 | R33S | 0.0623 ± 0.00052 | 0.0605 ± 0.0031 | 0.0656 ± 0.001
83 | R33Y | 0.0647 ± 0.0013 | 0.0618 ± 0.0013 | 0.0702 ± 0.0029
84 | R33F | 0.0599 ± 0.0018 | 0.061 ± 0.0029 | 0.0665 ± 0.0044
85 | G80A | 0.0577 ± 0.0029 | 0.0649 ± 0.0073 | 0.526 ± 0.039
86 | M60L P61N G128I | 0.436 ± 0.043 | 1.55 ± 0.032 | 3.7563 ± 0.0021
87 | E112M | 0.06212 ± 0.00026 | 0.0938 ± 0.0093 | 0.9465 ± 0.007
88 | E94Y | 0.0577 ± 0.0034 | 0.0553 ± 0.0047 | 0.153 ± 0.0047
89 | E94N | 0.0607 ± 0.0013 | 0.0755 ± 0.0047 | 0.659 ± 0.026
